Where two headings read alike, the source gives them in different places.

These results are taken from patent US20150023988A1.

What all share (test): cell-based or functional assay
The target in test [1] is human voltage-gated sodium channel Nav1.3 (human) (UniProt Q9NY46).
Test [2] addresses human voltage-gated sodium channel Nav1.4 (human) (UniProt P35499).
Test [3] addresses human voltage-gated sodium channel Nav1.7 (human) (UniProt Q15858).
For test [4], the target named is human voltage-gated sodium channel Nav1.5 (human) (UniProt Q14524).
Test [5] deals with human voltage-gated sodium channel Nav1.7 (human) (UniProt Q15858). The source holds these as a separate data set.
The target of test [6] is human voltage-gated sodium channel Nav1.4 (human) (UniProt P35499). This is another data set of the same source.
Test [7] concerns the target human voltage-gated sodium channel Nav1.5 (human) (UniProt Q14524). This is another data set of the same source.

Chain of human voltage-gated sodium channel Nav1.7 (human) (Q15858 whole entry): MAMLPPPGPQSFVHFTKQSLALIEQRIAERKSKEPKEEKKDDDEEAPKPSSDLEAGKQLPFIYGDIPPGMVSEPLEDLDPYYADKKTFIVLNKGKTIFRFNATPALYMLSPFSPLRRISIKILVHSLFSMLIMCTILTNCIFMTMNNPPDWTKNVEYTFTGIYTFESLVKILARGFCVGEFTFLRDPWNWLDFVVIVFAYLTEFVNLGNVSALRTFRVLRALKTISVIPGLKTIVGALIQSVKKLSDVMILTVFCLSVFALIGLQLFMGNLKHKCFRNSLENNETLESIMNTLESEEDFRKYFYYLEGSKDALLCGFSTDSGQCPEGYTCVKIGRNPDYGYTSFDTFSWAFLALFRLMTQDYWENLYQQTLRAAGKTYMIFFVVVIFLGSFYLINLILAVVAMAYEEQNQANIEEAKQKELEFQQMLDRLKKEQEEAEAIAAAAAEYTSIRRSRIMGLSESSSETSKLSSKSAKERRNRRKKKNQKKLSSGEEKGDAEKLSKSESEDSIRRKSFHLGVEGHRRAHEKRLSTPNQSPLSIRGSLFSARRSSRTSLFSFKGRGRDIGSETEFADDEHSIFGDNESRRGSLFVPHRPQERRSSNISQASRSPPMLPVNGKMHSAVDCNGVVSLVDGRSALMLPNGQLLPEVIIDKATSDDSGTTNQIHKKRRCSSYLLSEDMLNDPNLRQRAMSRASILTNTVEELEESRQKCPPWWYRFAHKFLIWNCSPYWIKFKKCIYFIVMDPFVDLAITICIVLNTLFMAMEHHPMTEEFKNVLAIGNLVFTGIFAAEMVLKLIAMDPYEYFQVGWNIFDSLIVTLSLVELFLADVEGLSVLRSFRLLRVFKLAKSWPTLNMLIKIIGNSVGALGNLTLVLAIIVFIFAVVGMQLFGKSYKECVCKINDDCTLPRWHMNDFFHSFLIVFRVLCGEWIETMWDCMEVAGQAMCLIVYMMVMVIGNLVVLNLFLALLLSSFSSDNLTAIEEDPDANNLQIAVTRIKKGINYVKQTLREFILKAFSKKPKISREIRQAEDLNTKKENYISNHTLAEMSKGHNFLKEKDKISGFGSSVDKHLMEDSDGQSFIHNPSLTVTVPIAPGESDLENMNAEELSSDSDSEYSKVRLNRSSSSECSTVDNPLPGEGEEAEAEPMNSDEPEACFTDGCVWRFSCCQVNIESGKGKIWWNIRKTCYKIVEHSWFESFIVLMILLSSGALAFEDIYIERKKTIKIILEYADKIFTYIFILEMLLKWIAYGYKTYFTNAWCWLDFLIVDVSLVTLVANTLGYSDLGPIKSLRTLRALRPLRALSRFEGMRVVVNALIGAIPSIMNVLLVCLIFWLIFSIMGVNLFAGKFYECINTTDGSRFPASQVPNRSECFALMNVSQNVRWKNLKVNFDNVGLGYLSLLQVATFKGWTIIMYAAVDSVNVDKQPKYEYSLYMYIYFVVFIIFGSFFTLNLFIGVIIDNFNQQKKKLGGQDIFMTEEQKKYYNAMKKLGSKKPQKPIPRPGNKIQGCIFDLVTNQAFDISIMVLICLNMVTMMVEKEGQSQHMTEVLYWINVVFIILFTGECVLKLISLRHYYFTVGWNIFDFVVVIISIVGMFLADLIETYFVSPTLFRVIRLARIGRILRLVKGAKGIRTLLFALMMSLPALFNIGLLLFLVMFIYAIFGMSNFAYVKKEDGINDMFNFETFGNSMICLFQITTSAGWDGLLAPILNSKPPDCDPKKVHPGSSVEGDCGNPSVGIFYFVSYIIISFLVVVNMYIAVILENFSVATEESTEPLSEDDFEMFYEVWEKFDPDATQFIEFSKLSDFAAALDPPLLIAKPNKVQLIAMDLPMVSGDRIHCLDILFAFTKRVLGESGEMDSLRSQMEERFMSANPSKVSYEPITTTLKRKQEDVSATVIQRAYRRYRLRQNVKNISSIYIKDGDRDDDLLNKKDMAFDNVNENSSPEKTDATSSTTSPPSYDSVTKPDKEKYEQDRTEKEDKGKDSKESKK
Chain of human voltage-gated sodium channel Nav1.5 (human) (Q14524 whole entry): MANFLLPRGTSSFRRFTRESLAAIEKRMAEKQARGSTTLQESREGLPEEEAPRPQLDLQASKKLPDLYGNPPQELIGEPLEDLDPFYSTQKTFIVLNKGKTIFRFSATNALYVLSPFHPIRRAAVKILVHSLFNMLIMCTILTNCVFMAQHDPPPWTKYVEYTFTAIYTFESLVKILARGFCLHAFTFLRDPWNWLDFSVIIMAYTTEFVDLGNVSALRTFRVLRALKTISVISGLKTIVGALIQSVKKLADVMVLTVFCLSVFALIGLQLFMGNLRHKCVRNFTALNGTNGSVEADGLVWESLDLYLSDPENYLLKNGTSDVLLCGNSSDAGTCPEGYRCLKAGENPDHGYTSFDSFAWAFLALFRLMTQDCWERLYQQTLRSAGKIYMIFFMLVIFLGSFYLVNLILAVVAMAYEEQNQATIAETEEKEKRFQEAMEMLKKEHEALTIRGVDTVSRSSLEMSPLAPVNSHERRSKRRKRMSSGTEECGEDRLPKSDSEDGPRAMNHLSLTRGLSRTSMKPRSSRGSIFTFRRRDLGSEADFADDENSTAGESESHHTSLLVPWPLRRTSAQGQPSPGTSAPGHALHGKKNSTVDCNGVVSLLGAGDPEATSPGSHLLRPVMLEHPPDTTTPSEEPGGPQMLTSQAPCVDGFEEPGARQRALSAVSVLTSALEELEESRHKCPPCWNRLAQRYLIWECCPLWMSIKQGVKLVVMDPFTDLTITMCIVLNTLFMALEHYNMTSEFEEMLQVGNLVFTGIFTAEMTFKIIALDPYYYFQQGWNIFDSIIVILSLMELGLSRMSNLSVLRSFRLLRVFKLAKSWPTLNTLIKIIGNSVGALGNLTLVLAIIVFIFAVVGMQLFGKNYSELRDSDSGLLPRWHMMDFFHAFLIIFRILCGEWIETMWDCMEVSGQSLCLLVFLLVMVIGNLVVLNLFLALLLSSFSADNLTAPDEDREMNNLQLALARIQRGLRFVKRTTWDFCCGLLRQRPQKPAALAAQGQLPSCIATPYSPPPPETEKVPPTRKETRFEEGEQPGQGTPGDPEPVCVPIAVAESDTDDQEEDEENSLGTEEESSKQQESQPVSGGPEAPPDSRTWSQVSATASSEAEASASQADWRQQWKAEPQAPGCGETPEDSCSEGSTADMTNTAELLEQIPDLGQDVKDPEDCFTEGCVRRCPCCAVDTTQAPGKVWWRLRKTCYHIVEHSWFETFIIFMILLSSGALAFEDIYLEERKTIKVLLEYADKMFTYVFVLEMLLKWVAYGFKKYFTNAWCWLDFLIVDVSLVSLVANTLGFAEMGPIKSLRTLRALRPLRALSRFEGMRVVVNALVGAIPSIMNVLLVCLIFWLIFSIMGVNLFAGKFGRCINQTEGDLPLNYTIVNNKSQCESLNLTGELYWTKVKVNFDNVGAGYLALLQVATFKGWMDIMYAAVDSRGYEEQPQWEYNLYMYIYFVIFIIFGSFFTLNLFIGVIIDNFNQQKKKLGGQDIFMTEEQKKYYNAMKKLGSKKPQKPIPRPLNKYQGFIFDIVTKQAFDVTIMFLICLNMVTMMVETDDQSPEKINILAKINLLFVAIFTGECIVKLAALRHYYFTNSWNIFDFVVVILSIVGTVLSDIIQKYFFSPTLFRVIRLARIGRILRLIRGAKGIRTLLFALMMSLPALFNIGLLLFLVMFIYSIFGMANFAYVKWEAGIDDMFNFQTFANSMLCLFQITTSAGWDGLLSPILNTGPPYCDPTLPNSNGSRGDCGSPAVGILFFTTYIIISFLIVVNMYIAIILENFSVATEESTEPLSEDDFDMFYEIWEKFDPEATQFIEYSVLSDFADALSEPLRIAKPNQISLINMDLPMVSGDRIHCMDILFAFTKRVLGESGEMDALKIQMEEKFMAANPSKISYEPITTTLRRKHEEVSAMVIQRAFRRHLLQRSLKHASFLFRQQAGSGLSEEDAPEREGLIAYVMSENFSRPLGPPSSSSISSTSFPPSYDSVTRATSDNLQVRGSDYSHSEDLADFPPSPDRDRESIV

On to “[Cit7;Glu20;Tyr28]JzTx-V(1-29) (peptide)”, for which the IC50 (IonWorks Quattro) in test [1] is over 7000 nM; in test [2] it was over 7000 nM; in test [3], 5800 nM; in test [4] it was over 7000 nM.

With “[Nle6; AzK11; Glu20; Trp29]JzTx-V(1-29) (peptide)”, the PX hNav1.7 Tonic IC50 in test [5] is 435 nM.

For the substance “[Nle6; Pra11; Glu20; Tyr28]JzTx-V(1-29) (peptide)”, in test [6], the PX hNav1.4 Tonic IC50 stood at 825 nM. This substance registered a PX hNav1.7 Tonic IC50 in test [5] of 1.28 nM. Further, the PX hNav1.5 Tonic IC50 in test [7] came to 2460 nM.

For “[Nle6; Pra11; Glu20]JzTx-V(1-29) (peptide)”, the PX hNav1.4 Tonic IC50 in test [6] worked out at 4220 nM. In test [5], this substance returned a PX hNav1.7 Tonic IC50 of 18.4 nM. Also, the PX hNav1.5 Tonic IC50 in test [7] was 3550 nM.

Take “[Nle6; Pra14; Glu20; Tyr28]JzTx-V(1-29) (peptide)”: the PX hNav1.4 Tonic IC50 in test [6] amounted to 707 nM. The PX hNav1.7 Tonic IC50 in test [5] turned out to be 1.76 nM. Besides, the PX hNav1.5 Tonic IC50 in test [7] stood at 3690 nM.

In the case of “[Nle6; Pra14; Glu20]JzTx-V(1-29) (peptide)”, the PX hNav1.4 Tonic IC50 in test [6] came out at 1660 nM. This substance also gave a PX hNav1.7 Tonic IC50 in test [5] of 7.16 nM. The PX hNav1.5 Tonic IC50 in test [7] amounted to 4570 nM.

Regarding “[Nle6;Pra11;Glu20;Trp29]JzTx-V(1-29) (peptide)”, the IC50 (IonWorks Quattro) in test [5] is 26 nM.

On to “[Nva7;Glu20;Tyr28]JzTx-V(1-29) (peptide)”, for which the IC50 (IonWorks Quattro) in test [1] was over 7000 nM; in test [2], over 7000 nM; in test [3] it was 4500 nM; in test [4], over 7000 nM.
